Laboratory results from paper PMC3279587.

B1: N2 (dsDNA)
DNA 1: GTCTGGCAATTAATATATTGCATTTGC
DNA 2: GCAAATGCAATATATTAATTGCCAGAC
B2: N9 (dsDNA)
DNA 1: GTCTGGCTCCTAATTAGTTCGATTAGC
DNA 2: GCTAATCGAACTAATTAGGAGCCAGAC
B3: N25 (dsDNA)
DNA 1: GTCTGGCCATTAATGATATCAATTAGC
DNA 2: GCTAATTGATATCATTAATGGCCAGAC
B4: N11 (dsDNA)
DNA 1: GTCTGGCAGTTAATTCGGCTTAGTAGC
DNA 2: GCTACTAAGCCGAATTAACTGCCAGAC
B5: N30 (dsDNA)
DNA 1: GTCTGGCCTCTAATTACGCCTAATTGC
DNA 2: GCAATTAGGCGTAATTAGAGGCCAGAC
B6: Lmo1 (dsDNA)
DNA 1: GTAATGAATTGATTTAATTAACAGGGGAGTCTGA
DNA 2: TCAGACTCCCCTGTTAATTAAATCAATTCATTAC

Key:
Test in all cases: EMSA
[1] = molecular target: T1, His-Arx 214-430 (Mus musculus, UniProt O35085 216-432)
[2] = molecular target: T2, Sumo-Arx (full-length) (Mus musculus, UniProt O35085 1-564)
[3] = molecular target: T3, GST-Arx 214-430 (Mus musculus, UniProt O35085 216-432)
[4] = molecular target: T1, His-Arx 214-430; remark: listed apart in the source
[5] = molecular target: T2, Sumo-Arx (full-length); remark: listed apart in the source
[6] = molecular target: GST-Arx 286-430 (Mus musculus, UniProt O35085 288-432)
[7] = molecular target: T3, GST-Arx 214-430; remark: listed apart in the source
[8] = molecular target: GST-Arx 286-430 L343Q (Mus musculus, UniProt O35085 288-432, L345Q)
Sequence of GST-Arx 286-430 L343Q (O35085 288-432 L345Q): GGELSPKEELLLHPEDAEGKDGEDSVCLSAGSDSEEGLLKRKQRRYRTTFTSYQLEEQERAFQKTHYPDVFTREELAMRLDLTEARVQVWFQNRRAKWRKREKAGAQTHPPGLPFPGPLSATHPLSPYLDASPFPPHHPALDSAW

T1 sequence (O35085 216-432): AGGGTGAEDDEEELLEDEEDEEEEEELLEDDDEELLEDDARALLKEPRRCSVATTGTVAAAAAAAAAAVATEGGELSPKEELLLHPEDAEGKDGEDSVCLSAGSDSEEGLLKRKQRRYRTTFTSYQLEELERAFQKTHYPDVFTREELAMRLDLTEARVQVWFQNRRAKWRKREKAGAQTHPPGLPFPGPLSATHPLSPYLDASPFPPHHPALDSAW
T3 sequence (O35085 216-432): as above
T2 sequence (O35085 whole entry): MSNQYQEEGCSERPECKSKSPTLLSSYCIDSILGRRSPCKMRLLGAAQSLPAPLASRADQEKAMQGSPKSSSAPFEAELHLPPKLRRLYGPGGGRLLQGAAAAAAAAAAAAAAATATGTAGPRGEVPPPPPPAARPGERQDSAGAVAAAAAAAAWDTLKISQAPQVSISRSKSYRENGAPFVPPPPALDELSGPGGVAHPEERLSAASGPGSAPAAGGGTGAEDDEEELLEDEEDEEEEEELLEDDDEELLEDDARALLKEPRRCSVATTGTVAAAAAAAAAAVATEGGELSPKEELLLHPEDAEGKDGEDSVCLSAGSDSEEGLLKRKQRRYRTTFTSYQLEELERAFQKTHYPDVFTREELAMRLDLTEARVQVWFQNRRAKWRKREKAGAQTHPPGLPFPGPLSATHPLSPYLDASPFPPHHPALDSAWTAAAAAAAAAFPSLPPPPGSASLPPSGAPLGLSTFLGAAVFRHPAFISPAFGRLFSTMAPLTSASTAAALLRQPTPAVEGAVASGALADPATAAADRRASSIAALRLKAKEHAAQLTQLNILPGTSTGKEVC
Sequence of GST-Arx 286-430 (O35085 288-432): as the sequence (O35085 288-432 L345Q) above, with Q58L counted along it

Binder | binding result [1] | binding result [2] | binding result [3] | binding signal [4] | binding signal [5] | binding signal [6] | binding signal [7] | binding result [8]
B1 | no binding | no binding | no binding | – | – | – | – | –
B2 | – | – | – | 97 % of strongest probe for this protein | 17 % of strongest probe for this protein | 95 % of strongest probe for this protein | 100 % of strongest probe for this protein | –
B3 | – | no binding | – | 46 % of strongest probe for this protein | – | 81.6 % of strongest probe for this protein | 33.6 % of strongest probe for this protein | –
B4 | no binding | – | no binding | – | 100 % of strongest probe for this protein | – | – | –
B5 | – | – | – | 100 % of strongest probe for this protein | 38 % of strongest probe for this protein | 100 % of strongest probe for this protein | 86 % of strongest probe for this protein | –
B6 | – | – | – | – | – | – | – | no binding
